Measured values taken from article PMC3991421.

Molecular target: hydroxycoumarin-labeled M2 C terminus (…) (influenza A virus)
Experiment: […]; fluorescence anisotropy, equilibrium; […], in triplicate

“purified LC3 (from UniProt Q9GZQ8 1-120) (natural protein)” gave a Kd of 9.5 µM.
